Assays:
[1] = molecular target: T1, Cynomolgus monkey PD-1-his protein (cynomolgus monkey PD-1 extracellular domain with his tag) (cynomolgus monkey, UniProt Q15116 25-165 (human entry)); experiment: BLI (ForteBio), antibody loaded on AHQ sensor, 100 nM PD-1-his in solution, monovalent, 1:1 model
T1 construct: also called Cyno PD-1-his; not shown: his tag
T1 chain: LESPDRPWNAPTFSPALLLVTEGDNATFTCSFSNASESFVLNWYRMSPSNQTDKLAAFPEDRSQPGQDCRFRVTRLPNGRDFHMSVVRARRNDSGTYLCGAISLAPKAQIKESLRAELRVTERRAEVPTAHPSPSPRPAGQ
Description: (§1) The binding dissociation constant (KD) values of the antibody obtained in Example 1 binding to human and cynomolgus monkey PD-1 were determined by biofilm optical interference technology (ForteBio). Fortebio affinity determination was carried out according to the existing method (Este, P et al. High throughput solution-based measurement of antibody-antigen affinity and epitope binning. Mabs, 2013.5(2): p. 270-8), and the extracellular amino acid sequences of human and cynomolgus monkey PD-1 were as set forth in SEQ ID NO:20 and 21, respectively.
(§2) The sensor loaded with antibody was exposed to 100 nM PD-1-his antigen until the plateau phase, and then the sensor was transferred to the assay buffer for at least 2 minutes for dissociation rate measurement. The kinetic analysis was performed using a 1:1 binding model.

[2] = molecular target: T2, Human PD-1-his protein (human PD-1 extracellular domain with his tag) (human, UniProt Q15116 25-170); experiment: as above
T2 construct: also called PD-1-his antigen; not shown: his tag
Description: as §1, §2

[3] = molecular target: T3, human PD-1 (Uniprot: Q15116) on cells (human, UniProt Q15116 25-288); experiment: flow cytometry on CHO-S cells overexpressing human PD-1
T3 construct: whole, on cells; The cell type is named under assay or readout; also called CHO-huPD-1 cells; CHO cells overexpressing human PD-1
Source text: (§3) By transfecting human PD-1 (Uniprot: Q15116), cynomolgus monkey PD-1 (Uniprot: BOLAJ3) cDNA pCHO1.0 vector (purchased from Invitrogen) into CHO-S cellsand following with pressure screening, CHO-S cells overexpressing human PD-1 (CHO-huPD-1 cells) and CHO-S cells overexpressing cynomolgus monkey PD-1 (CHO-cynoPD-1 cells) were produced. The overexpressed cells after expansion culture were adjusted to the appropriate cell density and added to a 96-well flow plate, centrifuged and then added with gradiently diluted samples, and incubated at 4° C. for 30 minutes. Washing was performed twice with PBS, fluorescent secondary antibody correspondingly diluted to the appropriate concentration was added, incubated at 4° C. for 30 minutes, and washed twice with PBS. The cells were resuspended in PBS, and detected on a CytoFlex flow cytometer, and the corresponding MFI was calculated. Graphpad software was used for graphical analysis to obtain EC₅₀ values.

[4] = molecular target: T3, human PD-1 (Uniprot: Q15116) on cells; experiment: flow cytometry, competition with bio-human PD-L1-Fc (0.5 µg/mL) on CHO-huPD-1 cells
[5] = molecular target: T3, human PD-1 (Uniprot: Q15116) on cells; experiment: flow cytometry on activated human primary T cells, fluorescent secondary antibody
[6] = molecular target: T3, human PD-1 (Uniprot: Q15116) on cells; experiment: flow cytometry on CHO cells overexpressing human PD-1, fluorescent secondary antibody
[7] = molecular target: T4, cynomolgus monkey PD-1 (Uniprot: BOLAJ3 as printed) on CHO-S cells (cynomolgus monkey); experiment: flow cytometry on CHO-S cells overexpressing cynomolgus monkey PD-1
T4 construct: whole, on cells; also called CHO-cynoPD-1 cells; CHO cells overexpressing cynomolgus monkey PD-1
Source text: as §3

[8] = molecular target: T4, cynomolgus monkey PD-1 (Uniprot: BOLAJ3 …); experiment: flow cytometry on CHO cells overexpressing cynomolgus monkey PD-1 according to legend paragraph 157 and Example 11 (the title on the sheet prints CHO-huPD-1), fluorescent secondary antibody
[9] = molecular target: T3, human PD-1 (Uniprot: Q15116) on cells; experiment: flow cytometry blocking assay on CHO cells overexpressing human PD-1; blocked ligand: bio-human PD-L1-Fc, SA-PE detection

T3 sequence (Q15116 25-288, one chain of several): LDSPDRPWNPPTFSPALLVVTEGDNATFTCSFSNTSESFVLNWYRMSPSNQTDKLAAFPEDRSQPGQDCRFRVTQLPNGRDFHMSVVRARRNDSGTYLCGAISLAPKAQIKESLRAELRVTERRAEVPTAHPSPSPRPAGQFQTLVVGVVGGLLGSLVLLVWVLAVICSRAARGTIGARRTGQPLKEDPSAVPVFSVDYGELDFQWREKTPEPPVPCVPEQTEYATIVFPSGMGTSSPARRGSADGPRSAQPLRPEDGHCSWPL
T2 sequence (Q15116 25-170): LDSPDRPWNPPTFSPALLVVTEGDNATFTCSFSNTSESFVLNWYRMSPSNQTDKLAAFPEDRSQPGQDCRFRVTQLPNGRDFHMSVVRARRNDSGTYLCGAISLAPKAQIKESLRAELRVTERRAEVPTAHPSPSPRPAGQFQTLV

Kd [1]: 0.201 nM
Kd [2]: 0.453 nM
EC50 [3]: 3.79 nM
IC50 [4]: 3.74 nM
EC50 (read off the curve) [5]: ~1 nM
EC50 (read off the curve) [6]: ~7 nM
EC50 [7]: 4.32 nM
EC50 (read off the curve) [8]: ~6 nM
IC50 (read off the curve) [9]: ~7 nM
B1: anti-PD-1 antibody ADI-54872 (antibody, human IgG1, kappa, L234A L235A, V domains shown)
VH: QVQLVQSGAEVKKPGASVKVSCKASGYTFTEYYIYWVRQAPGQGLEWIGGINPSNGGTNFNEKFKPRVTMTVDTSTSTAYMELSSLRSEDTAVYYCTVRDFRFDKGFKYWGQGTLVTVSS
VL: EIVLTQSPATLSLSPGERATLSCRASKSVSTSGLNYVHWYQRKPGQAPRLLIYLGSYLDSGVPARFSGSGSGTDFTLTISSLEPEDFAVYYCQQSWELPLTFGGGTKVEIKR
notes: Full-length IgG (human IgG1 LALA constant region), expressed in HEK293 and purified on Protein A
